{"source": "patent US20190085093", "proteins": {"B1": {"name": "matrix metallopeptidase 9 (MMP-9) (protein)", "chain": "APRQRQSTLVLFPGDLRTNLTDRQLAEEYLYRYGYTRVAEMRGESKSLGPALLLLQKQLSLPETGELDSATLKAMRTPRCGVPDLGRFQTFEGDLKWHHHNITYWIQNYSEDLPRAVIDDAFARAFALWSAVTPLTFTRVYSRDADIVIQFGVAEHGDGYPFDGKDGLLAHAFPPGPGIQGDAHFDDDELWSLGKGVVVPTRFGNADGAACHFPFIFEGRSYSACTTDGRSDGLPWCSTTANYDTDDRFGFCPSERLYTQDGNADGKPCQFPFIFQGQSYSACTTDGRSDGYRWCATTANYDRDKLFGFCPTRADSTVMGGNSAGELCVFPFTFLGKEYSTCTSEGRGDGRLWCATTSNFDSDKKWGFCPDQGYSLFLVAAHEFGHALGLDHSSVPEALMYPMYRFTEGPPLHKDDVNGIRHLYGPRPEPEPRPPTTTTPQPTAPPTVCPTGPPTVHPSERPTAGPTGPPSAGPTGPPTAGPSTATTVPLSPVDDACNVNIFDAIAEIGNQLYLFKDGKYWRFSEGRGSRPQGPFLIADKWPALPRKLDSVFEERLSKKLFFFSGRQVWVYTGASVLGPRRLDKLGLGADVAQVTGALRSGRGKMLLFSGRRLWRFDVKAQMVDPRSASEVDRMFPGVPLDTHDVFQYREKAYFCQDRFYWRVSSRSELNQVDQVGYVTYDILQCPED"}}, "key": {"[1]": {"target": "FCHo1-C-3×DDK mutation Δ531-589, O14526", "sequence (O14526 whole entry, looked up, stated change not applied, tested part not stated)": "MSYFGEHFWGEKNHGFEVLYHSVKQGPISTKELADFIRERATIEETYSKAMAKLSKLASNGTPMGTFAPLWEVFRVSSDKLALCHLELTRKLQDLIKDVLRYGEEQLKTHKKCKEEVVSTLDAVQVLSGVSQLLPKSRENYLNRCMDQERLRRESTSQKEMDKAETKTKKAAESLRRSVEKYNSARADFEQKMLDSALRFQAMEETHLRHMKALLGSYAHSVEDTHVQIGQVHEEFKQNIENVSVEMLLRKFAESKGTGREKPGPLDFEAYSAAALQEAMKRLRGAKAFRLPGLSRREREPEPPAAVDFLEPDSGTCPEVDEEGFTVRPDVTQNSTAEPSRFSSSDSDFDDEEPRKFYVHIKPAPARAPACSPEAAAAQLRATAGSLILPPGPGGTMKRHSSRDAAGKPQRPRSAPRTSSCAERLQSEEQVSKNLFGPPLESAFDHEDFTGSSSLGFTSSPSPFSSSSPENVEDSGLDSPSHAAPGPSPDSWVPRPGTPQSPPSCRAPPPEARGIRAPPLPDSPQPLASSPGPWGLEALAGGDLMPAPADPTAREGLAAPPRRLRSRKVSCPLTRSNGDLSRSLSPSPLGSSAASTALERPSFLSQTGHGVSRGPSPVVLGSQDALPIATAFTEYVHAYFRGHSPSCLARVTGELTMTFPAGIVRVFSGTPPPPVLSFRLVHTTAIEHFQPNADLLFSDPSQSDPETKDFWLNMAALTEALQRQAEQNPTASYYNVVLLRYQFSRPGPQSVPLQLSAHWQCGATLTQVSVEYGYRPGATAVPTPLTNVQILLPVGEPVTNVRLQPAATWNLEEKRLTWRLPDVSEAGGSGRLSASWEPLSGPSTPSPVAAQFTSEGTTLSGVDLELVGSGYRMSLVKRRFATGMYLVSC"}, "[2]": {"target": "FCHo1-C-3×DDK mutation Δ563-564, O14526", "sequence (O14526 whole entry, looked up, stated change not applied, tested part not stated)": "as above"}}}
{"protein": "B1", "values": [{"measurement": "zymography of MMP-9 after FLAG immunoprecipitation", "setting": "[1]", "value": "the activity of MMP-9 is suppressed in FCHo1 deletion mutations A563-564 and A531-589 compared with the wild-type"}, {"measurement": "zymography of MMP-9 after FLAG immunoprecipitation", "setting": "[2]", "value": "the activity of MMP-9 is suppressed in FCHo1 deletion mutations A563-564 and A531-589 compared with the wild-type"}]}
